Reference: US9980982B2, “HE4 based therapy for malignant disease” (Women & Infants Hospital of Rhode Island, priority 2011, dated 2018)
“Also recorded” adds a separate entry of the source.

Key:
SKOV-3 cells = assay: MTS cell viability assay, parental/wild-type SKOV-3 cells; assay type: cell-based, Human; conditions: for effect of recombinant HE4 on cisplatin efficacy in SKOV-3 cells: combination or pre-treatment with HE4 (4 ng/mL in FIG. 10B) plus cisplatin
Description: Cell growth and viability of cell lines (complete medium, 24 h incubation) was determined by the CellTiter 96® AQueous One Solution Assay (Promega Corp, Madison, Wis.) following the manufacturer's recommendations with modifications (Lange T S et al., 2008 PLOS One, 3(5):e2303). Experiments are expressed as the mean of triplicate determinations (X±SD) of a representative experiment in OD (cell growth) or % of absorbance by drug-treated versus untreated cells [=100%] (cell viability). Cisplatin (CDDP), paclitaxel, doxorubicin and camptothecin (CPT) were purchased from (Sigma Aldrich, St. Louis, Mo.).
To analyze the potential biological relevance of elevated HE4 production for ovarian cancer cells the efficacy of commonly used anticancer drugs was examined in a viability assay (FIG. 5). SKOV-3 clones or parental cells were treated with cisplatin, paclitaxel, doxorubicin, or camptothecin for 24 h in various concentrations as indicated and the cytotoxicity evaluated.

CaOV-3 = assay: Cell viability, exogenous recombinant HE4, CaOV-3; assay type: cell-based, Human

B1: recombinant HE4: exogenous recombinant human epididymal secretory protein E4 (protein)
chain: EKTGVCPELQADQNCTQECVSDSECADNLKCCSAGCATFCSLPNDKEGSCPQVNINFPQLGLCRDQCQVDSQCPGQMKCCRNGCGKVSCVTPNF
SKOV-3 cells
  effect of recombinant HE4 on cisplatin efficacy in SKOV-3 cells: enhanced the efficacy of cisplatin; also recorded: synergized or enhanced suppression of cell-viability
SKOV-3 cells; listed as HE4
  effect of recombinant HE4 on cisplatin efficacy in SKOV-3 cells: enhanced the efficacy of cisplatin
SKOV-3 cells; exogenous recombinant HE4
  effect on viability of SKOV-3 cells: suppressed the viability of SKOV-3 cells
SKOV-3 cells; proliferating ovarian cancer cells (SKOV-3), read-out: IC50, reduction of cell viability
  IC50: 1 to 8 µM
CaOV-3
  effect on viability of CaOV-3: suppressed the viability
